Experiments:
[1] = system: tumor-bearing mouse model; conditions: cited from earlier work
Treg cells = conditions: low doses; cited from earlier work
PBMCs (CD4+ T cells) = experiment: Flow cytometric analysis of peptide-cultured PBMCs (IFN-γ+CD4+, CD154); format: cell-based, human; conditions: PBMCs of HD #1
Protocol: FIG. 3A is a histogram, FIGS. 3B and C are bar graphs, and FIG. 3D is a line graph. Characterization of ASPH peptide-specific T cell responses. PBMCs obtained from patient HD #1 were cultured with the ASPH peptides indicated. After 2 weeks incubation, the cells were collected and re-cultured with the corresponding peptides for 20 hours, followed by analyses. p52-reactive PBMCs were stained and the percentage of IFN-γ^+CD4^+ T cells was determined by flow cytometric analysis (FIG. 3A). The percentage of CD154-expressing CD4^+ T cells assessed by flow cytometric analysis was determined as a measure of the response of cells to the ASPH peptide listed in accordance with Table I (FIG. 3B). […] PBMCs cultured 2 weeks with the peptides listed were not treated or pretreated with anti-HLA-A,B,C or anti-HLA-DR for 1 hour; the same corresponding peptide (10 μg/ml) was then added and IFN-γ in the culture supernates collected after 5 days was quantified by ELISA (FIG. 3C). […] PBMCs, cultured 2 weeks with the ASPH peptides listed, were collected and reincubated with increasing concentrations of the same peptide. IFN-γ in the culture supernates collected after 5 days was quantified by standard ELISA. […]

PBMCs = experiment: IFN-γ ELISpot after 2 weeks PBMC culture with single ASPH peptide; format: cell-based, human; conditions: 5 healthy blood donors HD #1-5
Protocol: (§1) Epitope-specific T cells were induced according to known methods.^21 Briefly, 2.5×10^5 PBMCs/200 μl X-VIVO 15 medium supplemented with 1 mM L-glutamine, 100 U/ml penicillin, 100 μg/ml streptomycin, and 50 U/ml recombinant human IL-2 (R&D Systems) in round-bottom 96-well plates were cultured for 2 weeks with 10 μg/ml individual peptide. When mature DCs were used as antigen-presenting cells, the T cells were isolated from PBMCs by negative selection using the Pan T Cell Isolation Kit II (Miltenyi Biotec). Regulatory T(reg) cells were removed by the addition of anti-CD25 microbeads (Miltenyi Biotec) where indicated. Treg cell-depleted or non-depleted T lymphocytes (2.4×10^6) were co-cultured for 8 days with 4×10^4 mature DCs loaded with relevant antigen in 24-well plates.^11
Human IFN-γ enzyme-linked immunospot (ELISpot) assays were performed as we described previously using a kit purchased from eBioscience (San Diego, Calif.) to determine T cell immune-reactivity.^21 Cells (5×10^4/well) were added to ELISpot plates (Millipore, Bedford, Mass.) pre-coated with anti-IFN-γ capture antibody and incubated with peptides (10 μg/ml) for 20 hours. […] The plates were developed by adding substrate, 3-amino-9-ethyl carbazole, and the number of spots/well was quantified using a CTL-immunospot S5 UV Analyzer (Cellular Technology Limited, Shaker Heights, Ohio).

[2] = system: established orthotropic HCC; conditions: mice bearing established orthotropic HCC; cited from earlier work
[3] = system: pan T cells purified from PBMCs (CD4+ T cells, CD8+ CTLs); experiment: T cell activation by co-culture with antigen-loaded monocyte-derived DCs, flow cytometric analysis; format: cell-based, human
Protocol: DCs were generated using known methods.^11,20 Monocytes were isolated from PBMCs using anti-CD14 microbeads (Miltenyi Biotec, Auburn, Calif.) and cultured for 5 days in X-VIVO 15 medium (Lonza, Walkerville, Md.) supplemented with human GM-CSF (R&D Systems, Minneapolis, Minn.) and IL-4 (R&D Systems). ASPH (1 μg/ml) was added on day 5. On the next day, TNF-α (R&D Systems) was added to stimulate DC maturation and the cells were incubated for another 48 hours. DCs incubated with α-fetoprotein (AFP; Zynaxis Cell Science, Malvern, Pa.) or alone served as the control. Mature, epitope-expressing DCs were collected at the end of the incubation period and used in the experiments described.
as §1
Flow cytometric analysis was conducted.^11 Intracellular cytokine staining was performed to evaluate T cell activation. Conjugated mouse monoclonal antibodies specific for the following determinants were used: CD4 (clone OKT4; BioLegend, San Diego, Calif.), CD8a (clone RPA-T8; BioLegend), CD137 (clone 4B4-1; BD Biosciences, San Diego, Calif.), CD154 (clone TRAP1; BD Biosciences), and IFN-γ (clone B27; BD Biosciences). Appropriate isotype controls were included in each analysis.
Experiments were undertaken to determine the capacity of ASPH to activate CD8^+ CTLs, as well as helper CD4^+ T cells, contained in the PBMC populations derived from HCC patients. The experimental procedure for evaluating ASPH-specific T cell activation was optimized using PBMCs derived from a healthy donor.^11 Pan T cells were co-cultured with autologous, ASPH-pulsed DCs; T cells co-incubated with AFP-pulsed or non-pulsed DCs served as controls. After 8 days culture, the T cells were collected and re-incubated with freshly prepared DCs pre-loaded with the same antigen; antigen-specific T cell activation was evaluated by flow cytometric analysis. […] Moreover, they support the premise that immunization with ASPH activates protein-specific CD4^+ and CD8^+ T cells in HCC patients.

[4] = HCC patients #1-5, ASPH-pulsed vs AFP-pulsed or non-pulsed DCs

## O=P1(N(CCCl)CCCl)NCCCO1 (centres unmarked) [cyclophosphamide]
[1]
  Treg cell function, immune response and tumor eradication: suppressed Treg cell function and augmented the immune response and tumor eradication
Treg cells
  number and inhibitory activity of Treg cells: decrease the number and inhibitory activity of Treg cells

## TSFFTWFMVIALLGVWTSVA (p52) [ASPH AA 52-71, HLA-DRB1-restricted]
PBMCs (CD4+ T cells)
  peptide-reactive IFN-γ-producing cells that expressed CD4: essentially all

## QKAKVKKKKPKLLNKF (p322) [ASPH AA 322-337, HLA-DRB1-restricted]
PBMCs
  healthy blood donors for whom the peptide was immunogenic: 5 donors

## CNC(=O)c1cc(Oc2ccc(NC(=O)Nc3ccc(Cl)c(C(F)(F)F)c3)cc2)ccn1 [sorafenib]
[2]
  Treg cell function and anti-tumor immunity: reduced Treg cell function and enhanced anti-tumor immunity

B1: ASPH: Full-length human ASPH recombinant protein produced in a Baculovirus system, loaded on monocyte-derived DCs (protein, listed as Homo sapiens)
chain: MAQRKNAKSSGNSSSSGSGSGSTSAGSSSPGARRETKHGGHKNGRKGGLSGTSFFTWFMVIALLGVWTSVAVVWFDLVDYEEVLGKLGIYDADGDGDFDVDDAKVLLGLKERSTSEPAVPPEEAEPHTEPEEQVPVEAEPQNIEDEAKEQIQSLLHEMVHAEHVEGEDLQQEDGPTGEPQQEDDEFLMATDVDDRFETLEPEVSHEETEHSYHVEETVSQDCNQDMEEMMSEQENPDSSEPVVEDERLHHDTDDVTYQVYEEQAVYEPLENEGIEITEVTAPPEDNPVEDSQVIVEEVSIFPVEEQQEVPPETNRKTDDPEQKAKVKKKKPKLLNKFDKTIKAELDAAEKLRKRGKIEEAVNAFKELVRKYPQSPRARYGKAQCEDDLAEKRRSNEVLRGAIETYQEVASLPDVPADLLKLSLKRRSDRQQFLGHMRGSLLTLQRLVQLFPNDTSLKNDLGVGYLLIGDNDNAKKVYEEVLSVTPNDGFAKVHYGFILKAQNKIAESIPYLKEGIESGDPGTDDGRFYFHLGDAMQRVGNKEAYKWYELGHKRGHFASVWQRSLYNVNGLKAQPWWTPKETGYTELVKSLERNWKLIRDEGLAVMDKAKGLFLPEDENLREKGDWSQFTLWQQGRRNENACKGAPKTCTLLEKFPETTGCRRGQIKYSIMHPGTHVWPHTGPTNCRLRMHLGLVIPKEGCKIRCANETRTWEEGKVLIFDDSFEHEVWQDASSFRLIFIVDVWHPELTPQQRRSLPAI
[3]; HCC patients #1-5
  CD4+ T cells expressing both IFN-γ and CD154: expanded significantly
[3]; [4]
  CD4+CD154+ and CD4+IFN-γ+ T cells: significant increases
  percentage of CD8+ CTLs expressing CD137 and IFN-γ: significantly higher
[3]; HCC patients, FIGS. 1B and 1D, p<0.05
  percentages of responsive cells vs AFP sample or antigen control: significantly greater
[3]; anti-CD25 microbeads prior to co-culture
  ASPH-specific T cell activation after Treg cell depletion: enhanced
[3]; healthy donor HD #1, ASPH-pulsed DCs compared to AFP or no antigen
  activation of both CD4+ T cells and CTLs: significant increases

Source: patent publication US10813984B2, “Aspartate-β-hydroxylase induces epitope-specific T cell responses in tumors” (Rhode Island Hospital, priority 2014, dated 2020)
